For seven molecules, binding result and Kd results are on record in patent US20080248502A1 (EISAI R AND D MANAGEMENT, published 2008).

The target of experiment [1] is T1, CAR-AP chimeric protein (extracellular region of mouse CAR linked with human secretory placental alkaline … (mouse; human, UniProt P97792 20-237; P05187 23-511).
T1 construct: Secreted from 293/EBNA-1 cells; also called CAR-AP chimeric proteins; immobilized CAR
Description: adhesion of transfected B300 cells to immobilized CAR-AP.

In experiment [2] the target is T2, CARL-AP chimeric protein (extracellular region of mouse CARL linked with human secretory placental alkaline … (mouse; human, UniProt P05187 23-511).
T2 construct: also called CARL-AP proteins; chimeric protein of ENSMUSG0000048534 with AP
Nature of the experiment: adhesion of B300/CARL cells to immobilized AP chimeric proteins (method of Example 4, proteins applied at 10 nM). How it is done: Cell adhesion experiments were carried out using AP chimeric proteins to identify molecules functioning as adhesion molecules that adhere to lymphocytes. First, 50 μl of 10 μg/ml anti-alkaline phosphatase antibody (Seradyn MIA1802) was added to 96 well ELISA plates (Nunc), and allowed to stand at 37° C. for 30 minutes to immobilize the antibody. After washing the plates with PBS, the non-specifically binding sites were blocked with BlockAce (Dainippon Pharmaceutical Co.). AP chimeric proteins were diluted to a final concentration of 10 nM, added to the wells, and allowed to stand at room temperature for 30 minutes to immobilize the proteins. Activated lymphocytes were suspended in cell adhesion buffer (RPMI 1640, 0.5% BSA, and 20 mM HEPES (pH 7.4)), fluorescently labeled with Calcein-AM (Dojin), then added to wells at 1×10⁵ cells/well, and incubated at 37° C. for one hour. The non-adherent cells were washed away. A cell lysis solution (10 mM TrisHCl (pH 8.0), 1% TritonX-100) was added, then adherent cells were quantified using Wallac ARVO SX 1420 MULTILABEL COUNTER (Perkin Elmer) and measuring at an excitation wavelength of 485 nm and detection wavelength of 535 nm. The degree of cell adhesion was represented as a percentage ratio of adherent cells to added cells. […]

For experiment [3], the target named is T1, CAR-AP chimeric protein (extracellular …). Nature of the experiment: adhesion of CARL-expressing B300 cells to immobilized AP chimeric proteins.
Experiment [4] deals with T3, human CAR-AP chimeric protein (extracellular region of human CAR linked with human secretory placental … (human, UniProt P78310 20-237; P05187 23-511).
T3 construct: also called human CAR-AP chimeric proteins
Description: cell surface binding of human CAR-AP to transfected B300 cells.

For experiment [5], the target named is T1, CAR-AP chimeric protein (extracellular …). Nature of the experiment: SPR (BIAcore X): CAR-AP captured by anti-alkaline phosphatase antibody on CM5 chip, CARL-Fc supernatant at 20, 6 or 0.6 nM. How it is done:
Then, a culture supernatant comprising CAR-AP chimeric protein or control AP chimeric protein diluted to 20 nM with HBS-EP buffer (BIAcore) was added to immobilize 500 RU of AP chimeric proteins onto the sensor chip. The protein-protein interactions were measured by adding culture supernatants comprising CARL-Fc chimeric proteins diluted to 20 nM, 6 nM, or 0.6 nM with HBS-EP buffer (BIAcore) at 20 μl/min for 210 seconds.
On the technique in general: SPR reads the build-up and loss of mass on a sensor chip optically.

Experiment [6] deals with T4, human CARL-AP chimeric protein (extracellular region of human CARL linked with human secretory placental … (human, UniProt P05187 23-511)).
T4 construct: also called human CARL-AP chimeric proteins
Description: adhesion of human CAR-expressing B300 cells to immobilized human CARL-AP.

One may read the Kd as the free concentration of one partner at which half of the binding sites on the other are occupied at equilibrium, for simple one-to-one binding. The low end stands for tighter binding, the high end for weaker binding.

T1 sequence (P97792 other isoform, or with tags, fused parts or gaps mutant): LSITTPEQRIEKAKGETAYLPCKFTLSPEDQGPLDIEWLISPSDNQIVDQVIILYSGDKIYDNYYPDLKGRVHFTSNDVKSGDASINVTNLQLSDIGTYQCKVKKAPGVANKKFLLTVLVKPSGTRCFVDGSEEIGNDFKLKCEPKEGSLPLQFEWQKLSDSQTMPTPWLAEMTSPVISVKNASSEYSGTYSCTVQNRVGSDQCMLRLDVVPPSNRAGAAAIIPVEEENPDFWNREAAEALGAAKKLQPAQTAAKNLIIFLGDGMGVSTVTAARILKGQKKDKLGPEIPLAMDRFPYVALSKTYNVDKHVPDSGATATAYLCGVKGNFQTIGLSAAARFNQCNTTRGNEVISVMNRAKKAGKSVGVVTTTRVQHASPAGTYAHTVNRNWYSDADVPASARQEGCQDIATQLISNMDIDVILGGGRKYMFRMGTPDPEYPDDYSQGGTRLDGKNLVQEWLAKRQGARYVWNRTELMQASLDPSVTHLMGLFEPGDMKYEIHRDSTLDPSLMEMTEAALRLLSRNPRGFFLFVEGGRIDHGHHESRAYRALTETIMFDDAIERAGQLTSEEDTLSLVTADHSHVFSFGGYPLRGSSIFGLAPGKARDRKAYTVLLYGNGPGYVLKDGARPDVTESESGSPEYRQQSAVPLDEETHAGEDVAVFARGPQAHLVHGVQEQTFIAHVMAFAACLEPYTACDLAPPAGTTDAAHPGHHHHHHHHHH

B1: domain 1-lacking CARL (positions 21 to 29 and 140 to 379) with FLAG tag, expressed on B300 cells (ligand)
chain: QGLPGLTVSPEEPKDLRVRVGDTTQMRCSIQSTEEKRVTKVNWMFSSGSHTEEETVLSYDSNMRSGKFQSLGRFRNRVDLTGDISRNDGSIKLQTVKESDRGIYTCSIYVGKLESRKTIVLHVVQDEFQRTISPTPPTDKGQQGILNGNQLVIIVGIVCATFLLLPVLILIVKKAKWNKSSVSSMASVKSLENKEKINPEKHIYSSITTWETTERGISGESEGTYMTMNPVWPSSPKASSLVRSSVRSK
notes: On cells; also called B300 cells expressing CARL lacking domain 1; not shown: FLAG tag from vector pMX ssFLAG MCS2.2 IRES Puro
On to B1, for which the binding result in experiment [1] is listed as “no binding”.

B2: domain 2-lacking CARL (positions 21 to 139 and 255 to 379) with FLAG tag, expressed on B300 cells (ligand)
chain: QGLPGLTVSSPQLRVHVGESVLMGCVVQRTEEKHVDRVDWLFSKDKDDASEYVLFYYSNLSVPTGRFQNRSHLVGDTFHNDGSLLLQDVQKADEGIYTCEIRLKNESMVMKKPVELWVLQDEFQRTISPTPPTDKGQQGILNGNQLVIIVGIVCATFLLLPVLILIVKKAKWNKSSVSSMASVKSLENKEKINPEKHIYSSITTWETTERGISGESEGTYMTMNPVWPSSPKASSLVRSSVRSK
notes: On cells; also called B300 cells expressing CARL lacking domain 2; not shown: FLAG tag from vector pMX ssFLAG MCS2.2 IRES Puro
As to B2, in experiment [1], the binding result is “binds”.

B3: mouse CARL (CAR ligand; ENSMUSG0000048534), full length, on cells (ligand)
chain: QGLPGLTVSSPQLRVHVGESVLMGCVVQRTEEKHVDRVDWLFSKDKDDASEYVLFYYSNLSVPTGRFQNRSHLVGDTFHNDGSLLLQDVQKADEGIYTCEIRLKNESMVMKKPVELWVLPEEPKDLRVRVGDTTQMRCSIQSTEEKRVTKVNWMFSSGSHTEEETVLSYDSNMRSGKFQSLGRFRNRVDLTGDISRNDGSIKLQTVKESDRGIYTCSIYVGKLESRKTIVLHVVQDEFQRTISPTPPTDKGQQGILNGNQLVIIVGIVCATFLLLPVLILIVKKAKWNKSSVSSMASVKSLENKEKINPEKHIYSSITTWETTERGISGESEGTYMTMNPVWPSSPKASSLVRSSVRSK
notes: also called CARL-expressing B300 cells; similar to AMICA (BC050133)
Take B3: the values for the binding result in experiment [2] and in experiment [3] were “no binding” and “binds”, respectively.

B4: full-length CARL (positions 21 to 379) with vector signal sequence and FLAG tag, expressed on B300 cells (ligand)
chain: B3 chain
notes: also called B300 cells expressing full-length CARL; not shown: FLAG tag from vector pMX ssFLAG MCS2.2 IRES Puro
On to B4, for which the binding result in experiment [1] is “binds”.

B5: human CARL (human AMICA), full length, expressed on B300 cells (ligand)
chain: LNDLNVSPPELTVHVGDSALMGCVFQSTEDKCIFKIDWTLSPGEHAKDEYVLYYYSNLSVPIGRFQNRVHLMGDILCNDGSLLLQDVQEADQGTYICEIRLKGESQVFKKAVVLHVLPEEPKELMVHVGGLIQMGCVFQSTEVKHVTKVEWIFSGRRAKEEIVFRYYHKLRMSVEYSQSWGHFQNRVNLVGDIFRNDGSIMLQGVRESDGGNYTCSIHLGNLVFKKTIVLHVSPEEPRTLVTPAALRPLVLGGNQLVIIVGIVCATILLLPVLILIVKKTCGNKSSVNSTVLVKNTKKTNPEIKEKPCHFERCEGEKHIYSPIIVREVIEEEEPSEKSEATYMTMHPVWPSLRSDRNNSLEKKSGGGMPKTQQAF
notes: also called human CARL-expressing B300 cells; B300 cells expressing human CARL
Consider B5, for which, in experiment [4], the binding result is given as “binds”.

B6: CARL-Fc chimeric protein (mouse CARL) (Fc fusion)
chain: QGLPGLTVSSPQLRVHVGESVLMGCVVQRTEEKHVDRVDWLFSKDKDDASEYVLFYYSNLSVPTGRFQNRSHLVGDTFHNDGSLLLQDVQKADEGIYTCEIRLKNESMVMKKPVELWVLPEEPKDLRVRVGDTTQMRCSIQSTEEKRVTKVNWMFSSGSHTEEETVLSYDSNMRSGKFQSLGRFRNRVDLTGDISRNDGSIKLQTVKESDRGIYTCSIYVGKLESRKTIVLHVVQDEFQRTISPTPPTDKGQQGILNGNQL
notes: The making of CARL-Fc is described nowhere; used as culture supernatant; only its extracellular region is in the construct; also called CARL-Fc chimeric proteins; not shown: Fc part: species, isotype and any linker are not described
In experiment [5], B6 yielded a Kd of 4.8 nM.

B7: human CAR, full length, expressed on B300 cells (receptor, UniProt P78310 20-365, looked up)
chain: LSITTPEEMIEKAKGETAYLPCKFTLSPEDQGPLDIEWLISPADNQKVDQVIILYSGDKIYDDYYPDLKGRVHFTSNDLKSGDASINVTNLQLSDIGTYQCKVKKAPGVANKKIHLVVLVKPSGARCYVDGSEEIGSDFKIKCEPKEGSLPLQYEWQKLSDSQKMPTSWLAEMTSSVISVKNASSEYSGTYSCTVRNRVGSDQCLLRLNVVPPSNKAGLIAGAIIGTLLALALIGLIIFCCRKKRREEKYEKEVHHDIREDVPPPKSRTSTARSYIGSNHSSLGSMSPSNMEGYSKTQYNQVPSEDFERTPQSPTLPPAKVAAPNLSRMGAIPVMIPAQSKDGSIV
notes: whole, on cells; also called human CAR-expressing B300 cells
Consider B7, for which the binding result in experiment [6] is listed as “binds”.
